According to IntAct's records for PubMed 12565857:

B1: Chromobox protein homolog 5 (Mus musculus), Q61686 (parent)
chain: MGKKTKRTADSSSSEDEEEYVVEKVLDRRMVKGQVEYLLKWKGFSEEHNTWEPEKNLDCPELISEFMKKYKKMKEGENNKPREKSEGNKRKSSFSNSADDIKSKKKREQSNDIARGFERGLEPEKIIGATDSCGDLMFLMKWKDTDEADLVLAKEANVKCPQIVIAFYEERLTWHAYPEDAENKEKESAKS
partner: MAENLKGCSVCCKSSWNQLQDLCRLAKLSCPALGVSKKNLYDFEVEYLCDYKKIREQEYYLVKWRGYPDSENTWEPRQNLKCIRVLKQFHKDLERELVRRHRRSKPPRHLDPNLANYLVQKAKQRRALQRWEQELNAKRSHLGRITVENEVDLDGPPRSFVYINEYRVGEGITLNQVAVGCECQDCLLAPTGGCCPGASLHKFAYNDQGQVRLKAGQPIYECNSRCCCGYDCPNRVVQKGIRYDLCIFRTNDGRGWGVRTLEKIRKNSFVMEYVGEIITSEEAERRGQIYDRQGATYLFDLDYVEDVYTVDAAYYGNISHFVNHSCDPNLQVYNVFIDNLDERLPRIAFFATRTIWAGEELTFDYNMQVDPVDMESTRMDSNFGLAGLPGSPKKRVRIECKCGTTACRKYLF

Variants of: B1
Settings: with suv91_mouse Suv39h1, O54864

| effect of a mutation on the interaction | Variant |
| --- | --- |
| disrupting interaction | I165E;Y168E |
